± gives the standard deviation of the averaged measurements.
Assays:
MCF7 = assay: percentage of EdU-negative (G0-arrested) nuclei per well, 72 h; higher = more G0 arrest; details: reference: sequence is the full UniProt precursor, the tested protein was the secreted form or ectodomain
hTERT-HMEC = assay: as above; details: reference: sequence is the full UniProt precursor, the tested protein was the secreted form or ectodomain
[1] = protein concentration 0.0225 µM
[2] = protein concentration 0.027265 µM
[3] = protein concentration 0.27265 µM
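Further: secreted proteins added to cultured cells, EdU pulse at the end, nuclei found by Hoechst imaging, EdU status from nuclear versus surrounding ring intensity ratio, PBS as neutral control.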

**Q.** With “MPAGRRGPAAQSARRPPPLLPLLLLLCVLGAPRAGSGAHTAVISPQDPTLLIGSSLLATCSVHGDPPGATAEGLYWTLNGRRLPPELSRVLNASTLALALANLNGSRQRSGDNLVCHARDGSILAGSCLYVGLPPEKPVNISCWSKNMKDLTCRWTPGAHGETFLHTNYSLKYKLRWYGQDNTCEEYHTVGPHSCHIPKDLALFTPYEIWVEATNRLGSARSDVLTLDILDVVTTDPPPDVHVSRVGGLEDQLSVRWVSPPALKDFLFQAKYQIRYRVEDSVDWKVVDDVSNQTSCRLAGLKPGTVYFVQVRCNPFGIYGSKKAGIWSEWSHPTAASTPRSERPGPGGGACEPRGGEPSSGPVRRELKQFLGWLKKHAYCSNLSFRLYDQWRAWMQKSHKTRNQDEGILPSGRRGTARGPAR” as the sequence, how does the “percentage of EdU-negative” value (MCF7; protein concentration 0.006 µM) read?
**A.** 25.3 ± 0.23%

**Q.** And the “percentage of EdU-negative” value (MCF7; protein concentration 0.06 µM)?
**A.** 28.9 ± 1.2%

**Q.** What about the “percentage of EdU-negative” value (hTERT-HMEC; protein concentration 0.006 µM) of the same sequence?
**A.** 4.58 ± 0.39%

**Q.** What about the “percentage of EdU-negative” value (hTERT-HMEC; protein concentration 0.06 µM) of the same sequence?
**A.** 5.19 ± 0.85%

**Q.** How did the “percentage of EdU-negative” value (MCF7; protein concentration 0.015 µM) turn out when “MPAIAVLAAAAAAWCFLQVESRHLDALAGGAGPNHGNFLDNDQWLSTVSQYDRDKYWNRFRDDDYFRNWNPNKPFDQALDPSKDPCLKVKCSPHKVCVTQDYQTALCVSRKHLLPRQKKGNVAQKHWVGPSNLVKCKPCPVAQSAMVCGSDGHSYTSKCKLEFHACSTGKSLATLCDGPCPCLPEPEPPKHKAERSACTDKELRNLASRLKDWFGALHEDANRVIKPTSSNTAQGRFDTSILPICKDSLGWMFNKLDMNYDLLLDPSEINAIYLDKYEPCIKPLFNSCDSFKDGKLSNNEWCYCFQKPGGLPCQNEMNRIQKLSKGKSLLGAFIPRCNEEGYYKATQCHGSTGQCWCVDKYGNELAGSRKQGAVSCEEEQETSGDFGSGGSVVLLDDLEYERELGPKDKEGKLRVHTRAVTEDDEDEDDDKEDEVGYIW” was run?
**A.** 24.9 ± 1%

**Q.** And the “percentage of EdU-negative” value (MCF7; protein concentration 0.15 µM)?
**A.** 26.5 ± 1.8%

**Q.** What about the “percentage of EdU-negative” value (hTERT-HMEC; protein concentration 0.015 µM) of the same sequence?
**A.** 5.37 ± 0.53%

**Q.** And the “percentage of EdU-negative” value (hTERT-HMEC; protein concentration 0.15 µM)?
**A.** 10.4 ± 1.6%

**Q.** What does the source list for “MPALGWAVAAILMLQTAMAEPSPGTLPRKAGVFSDLSNQELKAVHSFLWSKKELRLQPSSTTTMAKNTVFLIEMLLPKKYHVLRFLDKGERHPVREARAVIFFGDQEHPNVTEFAVGPLPGPCYMRALSPRPGYQSSWASRPISTAEYALLYHTLQEATKPLHQFFLNTTGFSFQDCHDRCLAFTDVAPRGVASGQRRSWLIIQRYVEGYFLHPTGLELLVDHGSTDAGHWAVEQVWYNGKFYGSPEELARKYADGEVDVVVLEDPLPGGKGHDSTEEPPLFSSHKPRGDFPSPIHVSGPRLVQPHGPRFRLEGNAVLYGGWSFAFRLRSSSGLQVLNVHFGGERIAYEVSVQEAVALYGGHTPAGMQTKYLDVGWGLGSVTHELAPGIDCPETATFLDTFHYYDADDPVHYPRALCLFEMPTGVPLRRHFNSNFKGGFNFYAGLKGQVLVLRTTSTVYNYDYIWDFIFYPNGVMEAKMHATGYVHATFYTPEGLRHGTRLHTHLIGNIHTHLVHYRVDLDVAGTKNSFQTLQMKLENITNPWSPRHRVVQPTLEQTQYSWERQAAFRFKRKLPKYLLFTSPQENPWGHKRTYRLQIHSMADQVLPPGWQEEQAITWARYPLAVTKYRESELCSSSIYHQNDPWHPPVVFEQFLHNNENIENEDLVAWVTVGFLHIPHSEDIPNTATPGNSVGFLLRPFNFFPEDPSLASRDTVIVWPRDNGPNYVQRWIPEDRDCSMPPPFSYNGTYRPV”?
**A.** percentage of EdU-negative (MCF7; protein concentration 0.019 µM): 25 ± 4.8%; percentage of EdU-negative (MCF7; protein concentration 0.19 µM): 29.1 ± 1.2%; percentage of EdU-negative (hTERT-HMEC; protein concentration 0.019 µM): 5.16 ± 1.3%; percentage of EdU-negative (hTERT-HMEC; protein concentration 0.19 µM): 11 ± 0.68%

**Q.** For “MPAVFMLASSSALQCGRGVPRFPRTEVGAGHSVNEETKAEKVGNQTSVIPATSRQAALGTSWTQRRTQPLQERSHWHPRGNNASGMGGHRMFPGPLRGPAAQVLENECGSLGRAAEGRS [Q8N2X6]”, which “percentage of EdU-negative” value (MCF7; [1]) is on record?
**A.** 24.5 ± 1.8%

**Q.** And the “percentage of EdU-negative” value (MCF7; protein concentration 0.225 µM)?
**A.** 24.7 ± 0.9%

**Q.** And the “percentage of EdU-negative” value (hTERT-HMEC; [1])?
**A.** 4.66 ± 0.059%

**Q.** And the “percentage of EdU-negative” value (hTERT-HMEC; protein concentration 0.225 µM)?
**A.** 4.77 ± 0.18%

**Q.** For “MPDTMLPACFLGLLAFSSACYFQNCPRGGKRAMSDLELRQCLPCGPGGKGRCFGPSICCADELGCFVGTAEALRCQEENYLPSPCQSGQKACGSGGRCAAFGVCCNDESCVTEPECREGFHRRARASDRSNATQLDGPAGALLLRLVQLAGAPEPFEPAQPDAY”, which “percentage of EdU-negative” value (MCF7; [2]) is on record?
**A.** 24 ± 0.36%

**Q.** What about the “percentage of EdU-negative” value (MCF7; [3]) of the same sequence?
**A.** 24.4 ± 0.13%

**Q.** What about the “percentage of EdU-negative” value (hTERT-HMEC; [2]) of the same sequence?
**A.** 5.39 ± 0.55%

**Q.** And the “percentage of EdU-negative” value (hTERT-HMEC; [3])?
**A.** 5.52 ± 1.1%

**Q.** With “MPEEGSGCSVRRRPYGCVLRAALVPLVAGLVICLVVCIQRFAQAQQQLPLESLGWDVAELQLNHTGPQQDPRLYWQGGPALGRSFLHGPELDKGQLRIHRDGIYMVHIQVTLAICSSTTASRHHPTTLAVGICSPASRSISLLRLSFHQGCTIASQRLTPLARGDTLCTNLTGTLLPSRNTDETFFGVQWVRP” as the sequence, how does the “percentage of EdU-negative” value (MCF7; [1]) read?
**A.** 26.5 ± 2.2%

**Q.** And the “percentage of EdU-negative” value (MCF7; protein concentration 0.225 µM)?
**A.** 26.6 ± 0.44%

**Q.** What about the “percentage of EdU-negative” value (hTERT-HMEC; [1]) of the same sequence?
**A.** 5.04 ± 0.08%

**Q.** And the “percentage of EdU-negative” value (hTERT-HMEC; protein concentration 0.225 µM)?
**A.** 5.11 ± 0.64%

Reference: the supplement of paper PMC11316812
